Laboratory results: patent US20230022700A1

Molecular target: polymerized rabbit skeletal muscle actin (F-actin) (rabbit) (UniProt P68135)

Question: How did the percent of total protein in the pellet when actin was present turn out when “Wolbachia wMel protein WD0830 (Wolbachia actin localizing effector 1, WalE1), purified from E. coli” was run?
Answer: Its percent of total protein in the pellet when actin was present is 24%.
